Experimental data published in the supplement of paper PMC7877785.
± gives the uncertainty stated by the source.

Experiment: self-splicing fitness, log relative to wild type (ln ratio); higher = more splicing; Tetrahymena group I intron in knt gene, E. coli kanamycin selection, DiMSum; sequences stand for … in CUCUCU…GGAGGGAAAAGUUAUCAGGCAUGCACCUGGUAGCUAGUCUUUAAACCAAUAGAUUGCAUCGGUUUAAAAGGCAAGACCGUCAAAUUGCGGGAAAGGGGUCAACAGCCGUUCAGUACCAAGUCUCAGGGGAAACUUUGAGAUGGCCUUGCAAAGGGUAUGGUAAUAAGCUGACGGACAUGGUCCUAACCACGCAGCCAAGUCCUAAGUCAACAGAUCUUCUGUUGAUAUGGAUGCAGUUCACAGACUAAAUGUCGGUCGGGGAAGAUGUAUUCUUCUCAUAAGAUAUAGUCGGACCUCUCCUUAAUGGGAGCUAGCGGAUGAAGUGAUGCAACACUGGAGCCGCUGGGAACUAAUUUGUAUGCGAAAGUAUAUUGAUUAGUUUUGGAGUACUCGUGGUCG
In short: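 DiMSum derived fitness as the error-weighted combination of fold changes across replicates, kanamycin versus no kanamycin, normalised to wild type. E. coli BL21(DE3) held the library, which randomised all eight P1ex-region intron nucleotides within the knt kanamycin-resistance gene on pET-22b(+). Six replicate transformations grew overnight at 37°C or 30°C on LB agar with or without 25 μg/mL kanamycin, also containing 100 μg/mL carbenicillin, 50 μM IPTG and 0.2% rhamnose, and pooled colonies were amplicon-sequenced on an Illumina HiSeq 2500.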

Sequence	self-splicing fitness (ln) (30 °C)	self-splicing fitness (ln) (37 °C)
UUCAAGCAAUAUUACGAUCG	-1.26 ± 0.1	-2.3 ± 0.2
ACUAAGCAAUAUUACGAUUU	-0.208 ± 0.062	-0.0751 ± 0.09
AGUGAGCAAUAUUACGCAGA	–	-1.35 ± 0.28
CCUAAGCAAUAUUACGGUUA	-3.71 ± 0.16	-2.67 ± 0.14
GACAAGCAAUAUUACGAGCU	-1.28 ± 0.08	-0.288 ± 0.11
GAGAAGCAAUAUUACGACUU	-1.9 ± 0.14	-1.14 ± 0.14
UUCAAGCAAUAUUACGUAGU	-3.6 ± 0.22	-1.61 ± 0.2
UGCAAGCAAUAUUACGUGUU	-2.22 ± 0.072	-1.52 ± 0.098
GAGAAGCAAUAUUACGAUUC	-0.752 ± 0.094	-0.653 ± 0.15
GGCGAGCAAUAUUACGGGGG	-3.33 ± 0.2	-2.64 ± 0.28
UCUCAGCAAUAUUACGUAUU	-3.14 ± 0.2	-2 ± 0.16
GUCUAGCAAUAUUACGACAA	-2.6 ± 0.23	-1.56 ± 0.26
CCACAGCAAUAUUACGCCCC	-2.07 ± 0.27	-2.2 ± 0.4
AUGCAGCAAUAUUACGUUCU	-0.207 ± 0.058	0.262 ± 0.079
GGUUAGCAAUAUUACGUUUU	-1.03 ± 0.055	-0.945 ± 0.083
GUCAAGCAAUAUUACGUCAU	-2.22 ± 0.075	-1.16 ± 0.064
CUCUAGCAAUAUUACGAUGC	-1.49 ± 0.17	-3.25 ± 0.33
UCAUAGCAAUAUUACGCAGU	-4.03 ± 0.36	-3.4 ± 0.31
UUGUAGCAAUAUUACGUUAC	–	-1.65 ± 0.43
AUUGAGCAAUAUUACGAAUC	-2.93 ± 0.4	–
GCAUAGCAAUAUUACGCCCG	-1.24 ± 0.32	-0.11 ± 0.32
GUCAAGCAAUAUUACGCAAA	-1.99 ± 0.15	-1.46 ± 0.16
UUCUAGCAAUAUUACGGACC	-1.51 ± 0.3	–
UGUAAGCAAUAUUACGCCGU	-2.48 ± 0.26	-3.08 ± 0.47
UCAAAGCAAUAUUACGACCA	-1.97 ± 0.22	-1.4 ± 0.23
UCUGAGCAAUAUUACGAUCU	-3.4 ± 0.35	-2.52 ± 0.21

Sequence	self-splicing fitness (ln) (30 °C)	self-splicing fitness (ln) (37 °C)
CGCUAGCAAUAUUACGCAGU	-3.63 ± 0.2	-2.35 ± 0.2
AGUCAGCAAUAUUACGCAUC	-1.32 ± 0.1	-0.329 ± 0.12
ACACAGCAAUAUUACGGGCG	-0.978 ± 0.048	-0.369 ± 0.062
CGCAAGCAAUAUUACGGGGC	-3.65 ± 0.17	-2.6 ± 0.15
GCACAGCAAUAUUACGGUCG	-0.697 ± 0.043	-0.246 ± 0.057
CCUCAGCAAUAUUACGUAUA	-3.44 ± 0.19	-3.16 ± 0.32
CGGAAGCAAUAUUACGACUU	-1.28 ± 0.084	0.261 ± 0.089
CCACAGCAAUAUUACGAUUA	-3.92 ± 0.18	-2.11 ± 0.13
GUGUAGCAAUAUUACGGGUA	-2.39 ± 0.2	-2.42 ± 0.16
AGCGAGCAAUAUUACGUGGU	-3.2 ± 0.25	-3.06 ± 0.22
GAAUAGCAAUAUUACGAUUG	-1.4 ± 0.1	-0.331 ± 0.13
GCGUAGCAAUAUUACGGACU	-0.176 ± 0.13	-0.78 ± 0.19
ACCGAGCAAUAUUACGUAGC	-3.46 ± 0.16	-1.61 ± 0.15
CCCUAGCAAUAUUACGCUCG	-2.25 ± 0.2	-2.85 ± 0.48
AUAAAGCAAUAUUACGAGCC	-0.929 ± 0.14	-1.35 ± 0.19
UUUGAGCAAUAUUACGGUUC	-3.67 ± 0.37	-3.69 ± 0.46
CGCAAGCAAUAUUACGUUUC	-2.92 ± 0.16	-2.21 ± 0.23
AGUUAGCAAUAUUACGUACG	-0.205 ± 0.18	0.0821 ± 0.19
GGUCAGCAAUAUUACGAGAA	-1.23 ± 0.47	-2.01 ± 0.38
AGUGAGCAAUAUUACGCAAU	-2.23 ± 0.4	-0.698 ± 0.43
GGUAAGCAAUAUUACGGACC	-0.973 ± 0.43	–
GCAAAGCAAUAUUACGGGCG	-0.534 ± 0.079	-0.696 ± 0.11
UUGUAGCAAUAUUACGCUGA	-1.09 ± 0.18	-1.05 ± 0.2
UCGCAGCAAUAUUACGUACA	-1.62 ± 0.15	-0.509 ± 0.12
CAAAAGCAAUAUUACGUUGC	-3.74 ± 0.18	-3.17 ± 0.23
GGGAAGCAAUAUUACGGAUU	-0.965 ± 0.07	-0.737 ± 0.1

Sequence	self-splicing fitness (ln) (30 °C)	self-splicing fitness (ln) (37 °C)
UACAAGCAAUAUUACGCCCU	-0.317 ± 0.085	-0.111 ± 0.12
GGAUAGCAAUAUUACGGCAG	–	-2.18 ± 0.22
UGGCAGCAAUAUUACGGAAU	-2.54 ± 0.12	-1.22 ± 0.17
GUGAAGCAAUAUUACGCACC	–	-1.92 ± 0.34
UUCCAGCAAUAUUACGGUUU	-0.65 ± 0.064	-0.427 ± 0.063
GUAUAGCAAUAUUACGCCAU	-2.96 ± 0.32	-1.6 ± 0.22
AGGUAGCAAUAUUACGUACU	-0.29 ± 0.014	-0.101 ± 0.034
GCGGAGCAAUAUUACGCGUU	-2.26 ± 0.24	-1.23 ± 0.22
AACAAGCAAUAUUACGAUUA	-0.823 ± 0.066	-0.696 ± 0.071
UUGUAGCAAUAUUACGCAAU	-2.98 ± 0.34	–
AAGCAGCAAUAUUACGCAAU	-1.23 ± 0.085	-1.22 ± 0.091
AUGAAGCAAUAUUACGUGGC	-3.92 ± 0.25	-2.56 ± 0.31
GUAGAGCAAUAUUACGCCUC	-0.746 ± 0.27	-0.67 ± 0.37
CUACAGCAAUAUUACGUCAC	-3.35 ± 0.36	-2.13 ± 0.18
CUGCAGCAAUAUUACGAUUU	-4.06 ± 0.17	-1.7 ± 0.14
CAAUAGCAAUAUUACGCCAC	-2.84 ± 0.28	–
UUACAGCAAUAUUACGUUGC	-3.56 ± 0.37	-2.37 ± 0.26
AGUCAGCAAUAUUACGAUUC	-3.27 ± 0.14	-1.05 ± 0.1
GCGGAGCAAUAUUACGGAAA	–	-1.54 ± 0.46
AUAGAGCAAUAUUACGGUAC	-3.74 ± 0.32	-1.55 ± 0.23
CGGGAGCAAUAUUACGGGCC	-1.81 ± 0.21	–
UCAGAGCAAUAUUACGUGGC	-3.85 ± 0.25	-2.32 ± 0.26
UUGUAGCAAUAUUACGGACG	-1.33 ± 0.19	-0.721 ± 0.19
CCCCAGCAAUAUUACGAGCA	-1.5 ± 0.14	-3.13 ± 0.34
CAUAAGCAAUAUUACGAGUU	-3.62 ± 0.29	-1.82 ± 0.14
CCACAGCAAUAUUACGGACG	-0.832 ± 0.05	-0.23 ± 0.066
